Binding response relative to αvβ6 and stoichiometry N (individual galectin-3 proteins) data for one substance are collected here from paper PMC11134550.

Experiment in all cases: SPR; Biacore T200; integrin (approx. 1000 RU) or TGFβRII (approx. 400 RU) amine-coupled to CM5 chip; galectin-3 2-fold serial dilutions injected (19.5-5000 nM integrins, 156.3-20000 nM TGFβRII), 30 μl/min, 20 °C, contact 120 s; HBS-P+ pH 7.4 ±1 mM MnCl2; steady-state fit, one-site specific binding; minimum number of binding sites = maximum response/Rmax
Assay [1] addresses recombinant human integrin αvβ1 (glycosylated) (human) (UniProt P06756).
Assay [2] deals with recombinant human integrin αvβ5 (glycosylated) (human) (UniProt P06756).
Assay [3] addresses recombinant human integrin αvβ6 (glycosylated) (human) (UniProt P06756).

Some results are limits rather than exact numbers.

For “recombinant human galectin-3 (expressed and purified for SPR) (from UniProt P17931 1-250) (natural protein)”, the binding response relative to αvβ6 in assay [1] and in assay [2] was 2 fold each time. For the same substance, the stoichiometry N (individual galectin-3 proteins) was more than 16 in assay [1], more than 16 in assay [2] and more than 8 in assay [3].
